Measurements published in patent publication US20260242485A1 (LEPU BIOPHARMA, published 2026).
Residue numbers refer to the chain shown, from its start. Values belong to the binder of their own block, whether it stands above or below them.

What was measured:
[1] = target: T1, human CD32B expressed on CHO-K1 cells (human, UniProt P31994 43-310); assay: flow cytometry, CHO-K1-hCD32B cells, geometric mean
T1 construct: whole, on cells; also called hCD32B
T1 sequence (looked up): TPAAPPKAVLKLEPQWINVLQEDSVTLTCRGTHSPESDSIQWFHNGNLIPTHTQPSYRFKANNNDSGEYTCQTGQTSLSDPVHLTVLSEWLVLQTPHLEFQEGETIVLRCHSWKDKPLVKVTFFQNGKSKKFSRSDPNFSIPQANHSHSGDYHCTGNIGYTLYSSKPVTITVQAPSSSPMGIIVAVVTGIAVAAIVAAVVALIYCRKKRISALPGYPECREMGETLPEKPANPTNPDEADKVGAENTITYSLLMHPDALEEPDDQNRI
Experimental: (§1) In order to evaluate the binding activity of the chimeric mAbs to human CD16A expressed on cells, cell-based binding assay was employed as followed. […] The antibody dilutions were incubated with 1×10⁵ indicated cells in the 96-well microplate for one hour at 4° C. The antibodies binding to the antigen on the cell surface were detected with PE fluorophore-conjugated anti-human IgG Fc secondary antibodies (ThermoFisher scientific, Cat. No. 12-4998-82) at a dilution rate of 1:1000. Cells were analyzed by flow cytometer LSRFortessa Cell Analyzer (BD Biosciences). Data were analyzed with Flowjo 10.0 software. The graph and statistics analysis were generated with four-parameter nonlinear regression curve fit in Graphpad Prism 9 software.
(§2) To exclude the non-specific binding of the CD16A chimeric antibody to human CD16B and CD32B expressed on cells, cell-based binding assay was performed as described above. Firstly, CHO-K1 cells were stably transferred with one human CD16B spliced isoform hCD16B-NA1 and human CD32B. Then, the cells were incubated with the indicated concentrations of CD16A chimeric antibodies.

[2] = target: T2, human CD16A-158V expressed on CHO-K1 cells (human, UniProt P08637 17-254); assay: flow cytometry on antigen-expressing CHO-K1 cells
T2 construct: whole, on cells; also called hCD16A-158V; CHO-K1-hCD16A-158V
T2 sequence (P08637 17-254 F176V): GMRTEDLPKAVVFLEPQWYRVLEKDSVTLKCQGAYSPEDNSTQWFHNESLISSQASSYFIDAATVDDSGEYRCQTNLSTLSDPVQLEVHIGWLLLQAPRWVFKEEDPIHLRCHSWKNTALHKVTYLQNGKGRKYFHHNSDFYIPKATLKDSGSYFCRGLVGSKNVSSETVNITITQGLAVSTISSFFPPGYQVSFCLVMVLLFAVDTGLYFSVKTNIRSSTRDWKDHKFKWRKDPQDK
Experimental: as §1
(§3) CHO-K1 cells stably expressing cynomolgus CD16 were used in the following test.

[3] = target: T3, human CD16A-158F expressed on CHO-K1 cells (human, UniProt P08637 17-254); assay: flow cytometry on antigen-expressing CHO-K1 cells
T3 construct: whole, on cells
T3 sequence (P08637 17-254): as the sequence (P08637 17-254 F176V) above, with V160F counted along it
Experimental: as §1, §3

[4] = target: T4, hCD16A-158V-his protein (human, UniProt P08637 17-208); assay: ELISA, plate-coated his-tagged antigen 2 ug/mL
T4 construct: extracellular domain; Bought protein; also called human CD16A-158V-his; Human CD16A-158V (protein)
T4 sequence (P08637 17-208 F176V): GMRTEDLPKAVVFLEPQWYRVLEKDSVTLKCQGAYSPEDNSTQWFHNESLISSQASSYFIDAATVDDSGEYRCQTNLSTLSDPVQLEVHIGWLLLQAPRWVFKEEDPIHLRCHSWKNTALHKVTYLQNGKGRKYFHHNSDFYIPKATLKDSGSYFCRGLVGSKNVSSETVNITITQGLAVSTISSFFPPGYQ
Experimental: (§4) In order to determine the binding ability of the chimeric Abs to human CD16A protein, ELISA-based binding assay was performed as followed. […] The mixture was incubated for 1 hour at room temperature (RT). The primary antibody was recognized by a detective antibody against human IgG Fc which was conjugated with horseradish peroxidase (HRP) (Jackson Immuno, Cat. No. 109-035-008). Tetramethylbenzidine (TMB), a substrate of HRP, was added to the wells to visualize the binding signal. After sufficient color development, stop solution was added to the wells. The absorbance of the signal was detected at 450 nm with Envision multilabel plate readers (PerkinElemer). The graph and statistics analysis were generated with four-parameter nonlinear regression curve fit in Graphpad Prism 9 software.
(§5) In order to determine the cross reactivity of the chimeric Abs to cynomolgus CD16, ELISA binding assay was performed as described above. Recombinant cyno CD16 ECD his tag protein (cynoCD16-his, Acro Bio, Cat. No. FC6-C52H9) was used as the coating antigen at 2 μg/mL.

[5] = target: T5, hCD16A-158F-his protein (human, UniProt P08637 17-208); assay: ELISA, plate-coated his-tagged antigen 2 ug/mL
T5 construct: Bought protein
T5 sequence (P08637 17-208 limits assumed): as the sequence (P08637 17-208 F176V) above, with V160F counted along it
Experimental: as §4, §5

[6] = target: T6, human CD16B-NA1 expressed on CHO-K1 cells (human, UniProt O75015 17-200); assay: flow cytometry, CHO-K1-hCD16B-NA1 cells, geometric mean
T6 construct: whole, on cells; also called hCD16B-NA1; CHO-K1-hCD16B-NA1
T6 sequence (O75015 other isoform, or with tags, fused parts or gaps): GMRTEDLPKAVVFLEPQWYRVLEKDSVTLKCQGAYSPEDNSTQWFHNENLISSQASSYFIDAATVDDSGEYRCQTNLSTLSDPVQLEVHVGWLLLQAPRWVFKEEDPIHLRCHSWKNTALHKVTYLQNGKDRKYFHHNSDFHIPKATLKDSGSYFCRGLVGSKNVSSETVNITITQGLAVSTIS
Experimental: as §1, §2

[7] = target: T4, hCD16A-158V-his protein; assay: SPR (Biacore 8K), antibody captured on Protein A chip, antigen at 50 nM
Experimental: (§6) The binding affinity of the chimeric antibodies to human CD16A was determined with Biacore™. Briefly, the antibodies were captured with a Protein A chip. […] The antigen was allowed to dissociate for 500 s. The experiment was carried out on a Biacore™ 8K. Data analysis was carried out using Biacore™ 8K evaluation software.

[8] = target: T5, hCD16A-158F-his protein; assay: as above
Experimental: as §6

[9] = target: T7, human CD16B-NA2 ECD his tag protein (human, UniProt O75015 17-200); assay: ELISA, hCD16B-NA2-his coated at 2 ug/mL, OD450
T7 construct: extracellular domain; Bought protein; also called hCD16B-NA2-his; hCD16B-NA2 protein
T7 sequence (O75015 17-200 N65S limits assumed): as the sequence (O75015 other isoform, or with tags, fused parts or gaps) above, with R20S, N49S, D66N, V90I counted along it
Experimental: as §4
(§7) In order to determine the binding ability of the chimeric Abs to human CD16B protein, ELISA binding assay was performed as previously described. Three spliced isoforms of CD16B including human CD16B-NA1 ECD his tag protein (hCD16B-NA1-his, Acro Bio, Cat: No. CDB-H5227), human CD16B-NA2 ECD his tag protein (hCD16B-NA2-his, Acro Bio, Cat: No. CDB-H82Ea) and human CD16B-SH-his protein, were used as the coating antigens at 2 μg/mL.

[10] = target: T8, human CD16B-NA1 ECD his tag protein (human, UniProt O75015 17-200); assay: ELISA, hCD16B-NA1-his coated at 2 ug/mL, OD450
T8 construct: extracellular domain; Bought protein; also called hCD16B-NA1-his; hCD16B-NA1 protein
T8 sequence (O75015 other isoform, or with tags, fused parts or gaps limits assumed): as the sequence (O75015 other isoform, or with tags, fused parts or gaps) above
Experimental: as §4, §7

binding result [1]: no binding (tested: 100 nM) | EC50 [2]: 0.68 nM | EC50 [3]: 0.74 nM | EC50 [4]: 0.17 nM | EC50 [5]: 1.2 nM | binding result [6]: no binding (tested: 100 nM) | Kd [7]: 1.26 nM | koff [7]: 0.00377 s⁻¹ | kon [7]: 2.98e+06 M⁻¹ s⁻¹ | Kd [8]: 1.62 nM | koff [8]: 0.00531 s⁻¹ | kon [8]: 3.27e+06 M⁻¹ s⁻¹ | binding result [9]: no binding (tested: 20 nM) | binding result [10]: no binding (tested: 20 nM)
B1: 37B3G11-hIgG1 LALAPG (antibody)
heavy: QVQLQQPGAELVRPGASVKLSCKASGYTFTTYWMNWVKQRPGQGLEWIGMIDPSDSETHYNQMFKDKATLTVDKSSSTAYMQLSSLTSEDSAVYYCAVPSLYNSNYRFAYWGQGTLVTVSAASTKGPSVFPLAPSSKSTSGGTAALGCLVKDYFPEPVTVSWNSGALTSGVHTFPAVLQSSGLYSLSSVVTVPSSSLGTQTYICNVNHKPSNTKVDKKVEPKSCDKTHTCPPCPAPEAAGGPSVFLFPPKPKDTLMISRTPEVTCVVVDVSHEDPEVKFNWYVDGVEVHNAKTKPREEQYNSTYRVVSVLTVLHQDWLNGKEYKCKVSNKALGAPIEKTISKAKGQPREPQVYTLPPSREEMTKNQVSLTCLVKGFYPSDIAVEWESNGQPENNYKTTPPVLDSDGSFFLYSKLTVDKSRWQQGNVFSCSVMHEALHNHYTQKSLSLSPGK
light: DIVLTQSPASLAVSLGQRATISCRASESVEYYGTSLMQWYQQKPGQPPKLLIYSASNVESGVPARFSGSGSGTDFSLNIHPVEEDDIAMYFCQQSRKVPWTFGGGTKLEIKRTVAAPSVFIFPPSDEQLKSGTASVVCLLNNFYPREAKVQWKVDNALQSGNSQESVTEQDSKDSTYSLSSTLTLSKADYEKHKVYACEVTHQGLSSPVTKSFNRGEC
notes: also called 37B3G11 chimeric Ab

binding result [1]: no binding (tested: 100 nM) | EC50 [2]: 0.8 nM | EC50 [3]: 0.77 nM | EC50 [4]: 0.13 nM | EC50 [5]: 0.44 nM | binding result [6]: no binding (tested: 100 nM) | Kd [7]: 3.81 nM | koff [7]: 0.0107 s⁻¹ | kon [7]: 2.81e+06 M⁻¹ s⁻¹ | Kd [8]: 2.45 nM | koff [8]: 0.00772 s⁻¹ | kon [8]: 3.16e+06 M⁻¹ s⁻¹ | binding result [9]: no binding (tested: 20 nM) | binding result [10]: no binding (tested: 20 nM)
B2: 23H7E4-hIgG1 LALAPG (antibody)
heavy: QVQLQQPGAELVRPGASVKLSCKASGYTFTSYWLNWVKQRPGQGLEWIGMIDPSDSETHYNQVFKDKATLTVDKSSTTAYMQLSSLTSEDSAVYYCARWMVTKKTFDYWGQGTTLTVSSASTKGPSVFPLAPSSKSTSGGTAALGCLVKDYFPEPVTVSWNSGALTSGVHTFPAVLQSSGLYSLSSVVTVPSSSLGTQTYICNVNHKPSNTKVDKKVEPKSCDKTHTCPPCPAPEAAGGPSVFLFPPKPKDTLMISRTPEVTCVVVDVSHEDPEVKFNWYVDGVEVHNAKTKPREEQYNSTYRVVSVLTVLHQDWLNGKEYKCKVSNKALGAPIEKTISKAKGQPREPQVYTLPPSREEMTKNQVSLTCLVKGFYPSDIAVEWESNGQPENNYKTTPPVLDSDGSFFLYSKLTVDKSRWQQGNVFSCSVMHEALHNHYTQKSLSLSPGK
light: DIVLTQSPASLAVSLGQRATISCRASESVEYYGPSLMQWYQQKPGQPPKLLIYAASNVESGVPARFSGSGSGTDFSLNIHPVEEDDIAMYFCQQSRKVPYTFGGGAKLEIKRTVAAPSVFIFPPSDEQLKSGTASVVCLLNNFYPREAKVQWKVDNALQSGNSQESVTEQDSKDSTYSLSSTLTLSKADYEKHKVYACEVTHQGLSSPVTKSFNRGEC
notes: also called 23H7E4 chimeric Ab

binding result [1]: no binding (tested: 100 nM) | EC50 [2]: 0.45 nM | EC50 [3]: 0.46 nM | EC50 [4]: 0.12 nM | EC50 [5]: 0.41 nM | binding result [6]: no binding (tested: 100 nM) | Kd [7]: 0.223 nM | koff [7]: 0.00142 s⁻¹ | kon [7]: 6.93e+06 M⁻¹ s⁻¹ | Kd [8]: 0.138 nM | koff [8]: 0.00102 s⁻¹ | kon [8]: 7.39e+06 M⁻¹ s⁻¹ | binding result [9]: no binding (tested: 20 nM) | binding result [10]: no binding (tested: 20 nM)
B3: 91A11D11-hIgG1 LALAPG (antibody)
heavy: QVQLQQPGAELVRPGTSVKLSCKASGYTFTSYWMNWVKQRPGQGLEWIGMIDPSDSETHYNQMFKDKATLTVDESSSTAYMQLSSLTSEDSAVYFCARWTLVVAHFFDYWGQGTTLTVSSASTKGPSVFPLAPSSKSTSGGTAALGCLVKDYFPEPVTVSWNSGALTSGVHTFPAVLQSSGLYSLSSVVTVPSSSLGTQTYICNVNHKPSNTKVDKKVEPKSCDKTHTCPPCPAPEAAGGPSVFLFPPKPKDTLMISRTPEVTCVVVDVSHEDPEVKFNWYVDGVEVHNAKTKPREEQYNSTYRVVSVLTVLHQDWLNGKEYKCKVSNKALGAPIEKTISKAKGQPREPQVYTLPPSREEMTKNQVSLTCLVKGFYPSDIAVEWESNGQPENNYKTTPPVLDSDGSFFLYSKLTVDKSRWQQGNVFSCSVMHEALHNHYTQKSLSLSPGK
light: B2 light with S28T, M37L, A54G, I87V, A106T
notes: also called 91A11D11 chimeric Ab

binding result [1]: no binding (tested: 100 nM) | EC50 [2]: 0.47 nM | EC50 [3]: 0.5 nM | EC50 [4]: 0.11 nM | EC50 [5]: 0.42 nM | binding result [6]: no binding (tested: 100 nM) | Kd [7]: 0.303 nM | koff [7]: 0.00139 s⁻¹ | kon [7]: 4.59e+06 M⁻¹ s⁻¹ | Kd [8]: 0.226 nM | koff [8]: 0.000873 s⁻¹ | kon [8]: 3.86e+06 M⁻¹ s⁻¹ | binding result [9]: no binding (tested: 20 nM) | binding result [10]: no binding (tested: 20 nM)
B4: 42F5H2-hIgG1 LALAPG (antibody)
heavy: QVQLQQPGAELVRPGASVKLSCKASGYTFTSYWMNWVKQRPGQGLEWIGMIDPSDSETHHNQMFKDKATLTVDKSSSTAYMQLSSLTSEDSAVYYCAKWLPPYAMDYWGQGTSVTVSSASTKGPSVFPLAPSSKSTSGGTAALGCLVKDYFPEPVTVSWNSGALTSGVHTFPAVLQSSGLYSLSSVVTVPSSSLGTQTYICNVNHKPSNTKVDKKVEPKSCDKTHTCPPCPAPEAAGGPSVFLFPPKPKDTLMISRTPEVTCVVVDVSHEDPEVKFNWYVDGVEVHNAKTKPREEQYNSTYRVVSVLTVLHQDWLNGKEYKCKVSNKALGAPIEKTISKAKGQPREPQVYTLPPSREEMTKNQVSLTCLVKGFYPSDIAVEWESNGQPENNYKTTPPVLDSDGSFFLYSKLTVDKSRWQQGNVFSCSVMHEALHNHYTQKSLSLSPGK
light: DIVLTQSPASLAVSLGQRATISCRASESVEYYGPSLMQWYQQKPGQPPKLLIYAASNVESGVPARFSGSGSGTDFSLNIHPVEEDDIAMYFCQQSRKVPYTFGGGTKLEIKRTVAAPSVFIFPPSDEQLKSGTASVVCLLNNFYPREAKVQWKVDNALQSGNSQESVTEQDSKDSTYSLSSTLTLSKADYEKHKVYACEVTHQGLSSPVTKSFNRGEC
notes: also called 42F5H2 chimeric Ab
